Test results as given in PMC4020936.
Each block holds one substance with its values, some of them ahead of it.

Assays:
[1] = biological target: truncated recombinant G. lamblia EB1, rGlEB1_(1–184) (CH domain and linker) (G. lamblia); assay: SEC; about 800 µg rGlEB1 in PBS on Superdex 75 10/300 GL; size markers 75, 29, 14 and 6 kDa; monomer to dimer
[2] = biological target: C13S-mutant rGlEB1 (G. lamblia); assay: as above
[3] = biological target: C46S-mutant rGlEB1 (G. lamblia); assay: SDS-PAGE of SEC fractions without DTT; fractions eluted from SEC separated by SDS-PAGE without DTT; shows disulfide-linked dimers only
[4] = biological target: full-length recombinant Giardia lamblia end-binding 1 protein, rGlEB1_(1–238) (G. lamblia); assay: as above
[5] = biological target: full-length recombinant Giardia lamblia end-binding 1 protein, rGlEB1_(1–238) (G. lamblia); assay: SEC; about 800 µg rGlEB1 in PBS on Superdex 75 10/300 GL; size markers 75, 29, 14 and 6 kDa; monomer to dimer

stoichiometry N [1]: 2
Substance: truncated recombinant G. lamblia EB1, rGlEB1_(1–184) (CH domain and linker) (domain or fragment)

Substance: C13S-mutant rGlEB1 (natural protein)
stoichiometry N [2]: 2

Substance: C46S-mutant rGlEB1 (natural protein)
stoichiometry N [3]: 2

stoichiometry N [4]: 2
stoichiometry N [5]: 2
Substance: full-length recombinant Giardia lamblia end-binding 1 protein, rGlEB1_(1–238) (natural protein)
